Results reported in publication PMC11894533, “A virulent milRNA of Fusarium oxysporum f. sp. cubense impairs plant resistance by targeting banana AP2 transcription factor coding gene MaPTI6L”.

Molecular target: MaPTI6L (Musa acuminata (Cavendish group cv. …, UniProt A0A804I776 1-300))
Assay: EMSA; EMSA Kit (Beyotime) protocol; buffer, salt, pH and temperature not stated
Details: protein: recombinant; tags: MBP; label: FAM

Sequence of MaPTI6L (Musa acuminata (A0A804I776 entry or part of it): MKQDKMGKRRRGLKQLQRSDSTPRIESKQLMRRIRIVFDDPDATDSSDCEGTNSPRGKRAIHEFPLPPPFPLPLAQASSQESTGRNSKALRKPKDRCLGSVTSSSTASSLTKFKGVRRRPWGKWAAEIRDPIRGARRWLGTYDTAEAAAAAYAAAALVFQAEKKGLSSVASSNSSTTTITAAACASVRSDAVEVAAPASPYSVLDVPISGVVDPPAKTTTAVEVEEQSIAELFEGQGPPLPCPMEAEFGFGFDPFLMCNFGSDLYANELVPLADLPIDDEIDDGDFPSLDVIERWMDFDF

B1: MaEDS1 promoter GCC-box mutant probe (dsDNA)
DNA 1: CCAACTCCTCCTCTCTCTGGACAAAAAACACAAACTCGTCTTGAAAACTCCGCGACAAA
DNA 2: TTTGTCGCGGAGTTTTCAAGACGAGTTTGTGTTTTTTGTCCAGAGAGAGGAGGAGTTGG
B1: no binding.
